Test results as given in article PMC10693918.

Target: TniQ transposition protein of the type I-F3b CAST element Tn6900, His6-tagged
Assay: cryo-EM structure

- stoichiometry N: 2
Substance: TniQ transposition protein of the type I-F3b CAST element Tn6900, His6-tagged (natural protein)
